# According to IntAct's records for PubMed 19509288:
# B1: ATP-dependent RNA helicase SUPV3L1, mitochondrial (Homo sapiens), Q8IYB8 (parent)
# chain: MSFSRALLWARLPAGRQAGHRAAICSALRPHFGPFPGVLGQVSVLATASSSASGGSKIPNTSLFVPLTVKPQGPSADGDVGAELTRPLDKNEVKKVLDKFYKRKEIQKLGADYGLDARLFHQAFISFRNYIMQSHSLDVDIHIVLNDICFGAAHADDLFPFFLRHAKQIFPVLDCKDDLRKISDLRIPPNWYPDARAMQRKIIFHSGPTNSGKTYHAIQKYFSAKSGVYCGPLKLLAHEIFEKSNAAGVPCDLVTGEERVTVQPNGKQASHVSCTVEMCSVTTPYEVAVIDEIQMIRDPARGWAWTRALLGLCAEEVHLCGEPAAIDLVMELMYTTGEEVEVRDYKRLTPISVLDHALESLDNLRPGDCIVCFSKNDIYSVSRQIEIRGLESAVIYGSLPPGTKLAQAKKFNDPNDPCKILVATDAIGMGLNLSIRRIIFYSLIKPSINEKGERELEPITTSQALQIAGRAGRFSSRFKEGEVTTMNHEDLSLLKEILKRPVDPIRAAGLHPTAEQIEMFAYHLPDATLSNLIDIFVDFSQVDGQYFVCNMDDFKFSAELIQHIPLSLRVRYVFCTAPINKKQPFVCSSLLQFARQYSRNEPLTFAWLRRYIKWPLLPPKNIKDLMDLEAVHDVLDLYLWLSYRFMDMFPDASLIRDLQKELDGIIQDGVHNITKLIKMSETHKLLNLEGFPSGSQSRLSGTLKSQARRTRGTKALGSKATEPPSPDAGELSLASRLVQQGLLTPDMLKQLEKEWMTQQTEHNKEKTESGTHPKGTRRKKKEPDSD
# partner: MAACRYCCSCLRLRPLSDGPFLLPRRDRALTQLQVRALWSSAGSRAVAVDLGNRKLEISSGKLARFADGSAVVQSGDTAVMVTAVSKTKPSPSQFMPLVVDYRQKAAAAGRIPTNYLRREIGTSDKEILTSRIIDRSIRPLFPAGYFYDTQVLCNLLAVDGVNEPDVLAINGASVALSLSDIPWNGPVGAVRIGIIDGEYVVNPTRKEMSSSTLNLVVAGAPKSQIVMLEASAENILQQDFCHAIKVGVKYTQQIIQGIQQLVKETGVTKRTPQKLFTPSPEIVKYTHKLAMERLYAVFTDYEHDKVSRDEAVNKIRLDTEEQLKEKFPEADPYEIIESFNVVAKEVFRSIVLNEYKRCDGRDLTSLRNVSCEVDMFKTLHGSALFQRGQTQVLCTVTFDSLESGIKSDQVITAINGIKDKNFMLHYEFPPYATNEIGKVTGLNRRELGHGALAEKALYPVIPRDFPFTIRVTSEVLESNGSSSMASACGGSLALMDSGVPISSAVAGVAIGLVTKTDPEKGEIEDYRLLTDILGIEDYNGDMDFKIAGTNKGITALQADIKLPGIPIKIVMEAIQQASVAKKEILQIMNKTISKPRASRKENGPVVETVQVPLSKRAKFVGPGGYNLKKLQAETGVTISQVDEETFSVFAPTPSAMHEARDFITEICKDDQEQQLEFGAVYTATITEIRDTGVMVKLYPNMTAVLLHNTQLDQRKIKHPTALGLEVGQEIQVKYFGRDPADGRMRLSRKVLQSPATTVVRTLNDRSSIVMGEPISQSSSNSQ
# Variants of: B1
# Details: with pnpt1_human PNPT1, Q8TCS8
row,effect of a mutation on the interaction,Variant
1,with no effect,K213A
